Measurements taken from patent publication US20160017016A1 (AstraZeneca / MedImmune, published 2016).
*1 amine or outer side, *2 acyl side, *3 side chain or, on linkers, in order; H or OH if unused. Primed or numbered codes have the meaning given here. Where no end group is shown, it is not given here. Side-chain parts run from the residue outwards. [ ]: non-standard residue; d: D form. The star is where a group is joined. PEG4′ = 4 PEG units (K(PEGxpalm): Lys with x PEG units and palmitoyl at epsilon N, C-terminal (PEG)4); γGlu = O=C(O)[C@H](CCC(=O)[*:2])N[*:1]; Palmitoyl = CCCCCCCCCCCCCCCC(=O)*; Aib = CC(C)(N)C(=O)O; PEG2′ = 2 PEG units

Target: human glucagon receptor (GCGR) (human, UniProt P47871 26-477)
Sequence (P47871 26-477): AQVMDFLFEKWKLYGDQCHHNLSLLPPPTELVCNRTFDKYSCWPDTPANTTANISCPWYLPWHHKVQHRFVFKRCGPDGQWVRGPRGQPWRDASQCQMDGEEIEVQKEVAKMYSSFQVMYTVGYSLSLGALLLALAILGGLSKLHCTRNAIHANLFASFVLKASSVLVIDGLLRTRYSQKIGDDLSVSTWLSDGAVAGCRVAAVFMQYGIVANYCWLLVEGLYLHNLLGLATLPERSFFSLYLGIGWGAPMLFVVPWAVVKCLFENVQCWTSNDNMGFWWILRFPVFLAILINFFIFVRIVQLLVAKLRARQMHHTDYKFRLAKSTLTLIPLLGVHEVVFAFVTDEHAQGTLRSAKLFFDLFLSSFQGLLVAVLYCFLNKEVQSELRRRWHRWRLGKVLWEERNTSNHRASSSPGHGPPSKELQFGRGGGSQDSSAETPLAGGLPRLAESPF
Experiment: cell-based or functional assay

Row | Binder | cAMP activity, Glcg EC50 nM [nM]
1 | HSQGTFTSDYSKYLDSK([PEG4′-Palmitoyl])RAQDFVQWEV[PEG4′] [g459] | 0.3
2 | H[Aib]QGTFTSDYSKYLDSK([PEG4′-γGlu-Palmitoyl])RARDFVAWLV[PEG4′] [g968] | 0.006
3 | HSQGTFTSDYSKYK([γGlu-Palmitoyl])DEERAQDFVQWLV[PEG4′] [g807] | 0.01
4 | HSQGTFTSDYSKYLDSRRAXDFVQWLV (K(gE-palm) at 20; C-terminal PEG4) [g456] | 0.07
5 | HSQGTFTSDYSKYLDSXRAQDFVQWLV (not fully specified; K(PEG2-gE-palm) at 17; C-terminal PEG4) [g965] | 0.002
6 | HSQGTFTSDYSKYLDSXRAQDFVQWLV (not fully specified; K(PEG4-gE-palm) at 17; C-terminal PEG4) [g964] | 0.002
7 | HSQGTFTSDYSEYLDSK([γGlu-Palmitoyl])RAADFVQWLV[PEG4′] (not fully specified; printed as HSQGTFTSDYSEYLDSBRAADFVQWLVZ4) [g775] | 0.08
8 | HSQGTFTSDYSKYLDSK([γGlu-Palmitoyl])RAQDFVQWEV[PEG4′] [g458] | 9
9 | HSQGTFTSDK([PEG4′-Palmitoyl])SKYLDSSRARDFVAWLV[PEG4′] [g971] | 0.007
10 | HSQGTFTSDYSKYK([γGlu-Palmitoyl])DSRRAQDFVQWLV[PEG4′] [g426] | 0.003
11 | HSQGTFTSDYSKYLDSRRAQDFVQWLV (C-terminal PEG2) [g355] | 0.03
12 | HSQGTFTSDYSKYLDSXRAQDFVQWLE (not fully specified; K(PEG2-PEG2-gE-palm) at 17; C-terminal PEG4) [g966] | 0.001
13 | HSQGTFTSDYSKYLDSK([PEG4′-γGlu-Palmitoyl])RARDFVAWLE[PEG2′] [g967] | 0.006
14 | HSQGTFTSDYSEYLDSK([γGlu-Palmitoyl])RAQDFVQWLV[PEG4′] [g676] | 40
15 | HSQGTFTSDYSKYLDSRKAQDFVQWLE[PEG4′] (not fully specified (residue 18); printed as HSQGTFTSDYSKYLDSRB1AQDFVQWLEZ4) [g455] | 0.001
16 | HSQGTFTSDYSKK([PEG4′-Palmitoyl])LDSSRARDFVAWLV[PEG4′] [g970] | 0.003
17 | HGQGTFTSDYSKYLDSXRAQDFVQWLV (K(gE-palm) at 17; C-terminal PEG4) [g430] | 0.8
18 | HSQGTFTSDYSKYLDSRAAQK([γGlu-Palmitoyl])FVQWLV[PEG4′] [g809] | 0.07
19 | H[Aib]QGTFTSDYSKYK([γGlu-Palmitoyl])DSERARDFVAWLV[PEG4′] [g868] | 0.02
20 | HSQGTFTSDYSKYLDK([PEG4′-Palmitoyl])RRAQDFVQWEV[PEG4′] [g497] | 0.3
